Measured values: patent US11932673B2, “Sodium channel inhibitors” (priority 2017, dated 2024)

Key:
[1] = tested on: trypsin; assay: Phage TRF binding assay of KnotBody phage on immobilised biotinylated trypsin
Procedure: Phage display technology facilitates isolation of binders to any given target from large combinatorial repertoires based on proteins and peptides that can be presented on the surface of filamentous phage^105. In order to isolate functional knottin-antibody fusions from the KnotBody libraries multiple rounds of phage display selections on trypsin (cognate antigen for the EETI-II donor) were carried out. Phage particles were prepared by rescuing KnotBody libraries using trypsin cleavable helper phage^102,106 Two rounds of phage display selections were performed on 10 μg/ml biotinylated trypsin immobilised on Streptavidin (for Round-1) or Neutravidin (for round-2) coated Maxisorp™ immunotubes (Thermo Scientific, Cat No. 444202). In both rounds of selection, phage libraries were pre-incubated with streptavidin coated paramagnetic beads (Thermo Fisher Scientific, Cat. No. 11205D). These beads were removed prior to the addition the phage to the antigen tubes to limit the streptavidin binders entering the selection. Polyclonal phage preparations from round-2 selection outputs were analysed for trypsin binding using a time resolved fluorescence (TRF) binding assay. In this assay, polyclonal phage binding to biotinylated trypsin immobilised on neutravidin (Thermo Fisher Scientific, Cat. No 31000) coated Maxisorp™ plates (Thermo Scientific, Cat. No. 437111) was detected using a mouse anti-M13 antibody (GE Healthcare, Cat. No. 27-9420-01) followed by europium conjugated anti-mouse antibody (Perkin Elmer, Cat. No. AD0124).
In order to identify monoclonal KnotBodies with desired binding characteristics, 94 individual clones derived from 2 rounds of selection using EETI-II CDR1 or CDR2 libraries were picked into 96 well culture plates and phage were prepared from each clone. Methods for screening by monoclonal phage ELISA are known in the art^107. […] Clones with >3× binding signal above background were picked as positive clones and sequenced to identify unique clones. 14 and 42 unique binders were identified from EETI-II CDR1 and EETI-II CDR2 libraries respectively (Table 1). 18 binders from the EETI-II CDR2 library and 3 binders from the EETI-II-CDR1 library were chosen for further characterisation based on their VL and linker sequence diversity. These binders were assigned new clone identification numbers (Table 2). […] In order to confirm that the loss of trypsin binding was not due to reduced expression or display of pIII fusion phage was prepared from 11 (randomly chosen) KnotBodies and their GlyAla variants were analysed on a western blot using an antibody which recognises the product of gene 3 (pIII) using an anti-pIII antibody (MoBiTec GmbH) (FIG. 6).

[2] = tested on: in vitro rat BBB model system; type: in vitro ADME; details: Fab format, oligoclonal mixes of 3 Fabs at final 2 μM, controls 1 μM, blood side to brain side, 37° C.
Procedure: In order to assess the ability of these KnotBodies to cross the BBB, a ready to use in vitro rat BBB model system (Pharmacocell, Cat. No. RBT-24H) was used. In this model system rat brain endothelial cells were co-cultured with pericytes and astrocytes to mimic the in vivo BBB anatomy (Nakagawa, S. et al. (2009) Neurochem. Int. 54, 253-263). The in vitro rat BBB kit was cultured according to manufacturer's instructions and transendothelial electrical resistance (TEER) was measured prior to testing of KnotBodies to verify the integrity of the barrier. […] 21 KnotBody Fabs were tested for their ability to cross the in vitro BBB model system. […] The parent KnotBody KB_A12 was used as a negative control. Both positive and negative controls were expressed and purified in the Fab format as described above. […] The concentration of transcytosed Fabs in the lower chamber (referred as brain side) was determined using a sandwich ELISA. In this ELISA, Fabs were captured using an anti-CH1 antibody (provided by Hybridoma Reagent Laboratories) and detected using rabbit anti-human IgG Kappa light chain antibody (Abcam, Cat. No. ab195576) or anti-human IgG Lambda light chain antibody (Abcam, Cat. No. ab124719) followed by europium conjugated anti-rabbit antibody (Perkin Elmer, Cat. No. AD0105). […]

[3] = target: LOX-1 (Homo sapiens, UniProt P78380); assay: Phage TRF binding assay of adhiron-antibody fusions on LOX-1; details: monoclonal phage; LOX-1 directly immobilised; non-specific binding checked on cMET-FC, GAS6-CD4, FGFR4-CD4, UPA, B-gal
Procedure: In order to test the functionality of these adhiron-antibody fusions, monoclonal phage prepared from each clone was assessed for binding to LOX-1 in a TRF binding assay. In this assay, LOX-1 (immobilised directly on Maxisorp™ plates) binding of phage displaying adhiron-antibody fusion was detected using a mouse anti-M13 antibody (GE Healthcare) followed by europium conjugated anti-mouse antibody (Perkin Elmer). Parent KnotBodies KB_A07 and KB_A12 (EETI-II fusions) were included as controls. Proteins cMET-FC, GAS6-CD4, FGFR4-CD4, UPA and B-gal were used to examine non-specific binding.

B1: KB_A12: EETI-II VL CDR2 KnotBody, D1A12 VH, VL SEQ ID NO: 105/373; parental/isotype control (antibody, V domains shown)
VH: EVQLVESGGGLVRPGGSLRLSCAASGFTFSSYAMSWVRQAPGKGLEWVSAISGSGGSTYYADSVKGRFTISRDNTKNSLYLQMTSLRADDTAFYYCVKDFGPGYGTGWFDYWGPGTLVTVSS
VL: QSVLTQPPSVSEAPRQRVTITCSGSSSNIGNNAVNWYQQLPGKAPKLLIYAAGRCPRILMRCKQDSDCLAGCVCGPNGFCGANSGVSDRFSAAKSGTSASLAINGLRSEDEADYYCAAWDDSLNGYVFGTGTKLTVLG
% reduction in binding signal ([1]; […], monoclonal phage, streptavidin coated plates): 99% | Tryspin binding signal (FU) ([1]; monoclonal phage supernatant, biotinylated trypsin on neutravidin coated plates, TRF): 69349 FU | % transcytosis after 6 h [2]: 0.1% | binding to LOX-1 [3]: no detectable binding to the LOX-1
